The values that follow come from paper PMC9369017.

For this assay, the target named is SARS-CoV-2 spike protein on Ramos-S cells (SARS-CoV-2) (UniProt P0DTC2). Put plainly: flow cytometry on cells.

“EflACE2-Fc-H429Y (from UniProt Q9BYF1 19-740) (Fc fusion)” displayed a median fluorescence intensity of 15100.

“flACE2-Fc-E430G (from UniProt Q9BYF1 19-740) (Fc fusion)” displayed a median fluorescence intensity of 17300.

As for “trACE2-Fc-H429Y (from UniProt Q9BYF1 19-615) (Fc fusion)”, the median fluorescence intensity is 11600.

“EflACE2-Fc-E430G (from UniProt Q9BYF1 19-740) (Fc fusion)” returned a median fluorescence intensity of 21000.

For the substance “flACE2-Fc-H429Y (from UniProt Q9BYF1 19-740) (Fc fusion)”, the median fluorescence intensity stood at 12500.

In turn, “trACE2-Fc-H429F (from UniProt Q9BYF1 19-615) (Fc fusion)” displayed a median fluorescence intensity of 16300.

“trACE2-Fc-E430G (from UniProt Q9BYF1 19-615) (Fc fusion)” registered a median fluorescence intensity of 16700.

The substance “flACE2-Fc-H429F (from UniProt Q9BYF1 19-740) (Fc fusion)” registered a median fluorescence intensity of 16900.

Take “EflACE2-Fc-H429F (from UniProt Q9BYF1 19-740) (Fc fusion)”: the median fluorescence intensity was 20500.
